Where no end group is shown, it is not given here. The star is where a group is joined. Biotin = O=C1N[C@H]2[C@H](CS[C@H]2CCCCC(=O)*)N1
T1: granulocyte-colony stimulating factor receptor (G-CSFR), purified / soluble receptor used in the binding … (UniProt Q99062 25-627, limits assumed)
T1 construct: also called G-CSF receptor; soluble G-CSFR harvest
T1 sequence (looked up): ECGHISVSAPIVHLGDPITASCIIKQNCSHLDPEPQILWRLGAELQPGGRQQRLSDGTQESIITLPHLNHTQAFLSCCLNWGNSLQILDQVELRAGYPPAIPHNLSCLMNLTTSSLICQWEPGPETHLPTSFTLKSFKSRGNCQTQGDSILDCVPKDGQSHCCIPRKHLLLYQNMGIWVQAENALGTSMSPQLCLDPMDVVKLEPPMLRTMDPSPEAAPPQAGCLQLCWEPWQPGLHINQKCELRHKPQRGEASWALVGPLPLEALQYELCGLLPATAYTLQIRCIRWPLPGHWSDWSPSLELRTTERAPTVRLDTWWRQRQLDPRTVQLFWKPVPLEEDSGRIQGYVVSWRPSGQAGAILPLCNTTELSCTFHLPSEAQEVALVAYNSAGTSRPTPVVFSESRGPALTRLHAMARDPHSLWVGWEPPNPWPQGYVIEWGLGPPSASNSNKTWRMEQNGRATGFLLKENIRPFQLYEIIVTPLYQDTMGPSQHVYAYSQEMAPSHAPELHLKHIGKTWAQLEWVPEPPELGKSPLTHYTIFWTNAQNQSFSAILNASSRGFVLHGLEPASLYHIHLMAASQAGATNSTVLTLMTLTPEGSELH

B1: Example 64 lysine-linked dimer MLAERKAEERRWFNTHGRE / MLAERKAEERRWFNTHGREK (peptide)
peptide 1: MLAERKAEERRWFNTHGRE
peptide 2: MLAERKAEERRWFNTHGREK-NH2
modifications: also: chain 1 C-terminus joined to the C-terminal Lys of chain 2 (branch link drawn)
notes: also called Ex. No. 64
B2: Example 53 peptide LLDICELKLQECARRCN (AF15846), oxidation state as tested not stated (peptide)
peptide: H-LLDICELKLQECARRCN-OH
modifications: also: oxidation state as tested not given here, active only after oxidation, as a dimer
notes: also called Ex. No. 53; Ex. 78 peptide
B3: Example 50 dimer of DLWYLESKLEECARRANG (peptide)
peptide: H-DLWYLESKLEECARRANG-NH2
modifications: also: disulfide at 12, other end not in the chain
notes: T0034 draws this dimer as [H]-...-[NH2]; also called Ex. No. 50

These binders were tested against T1, granulocyte-colony stimulating factor … (assay: specific binding to G-CSFR (total minus non-specific binding with excess unlabeled ligand)).

Row | Binder | binding result
1 | CETLCGACFC (also called Ex. No. 15) [Example 15 peptide CETLCGACFC] | no binding
2 | CFWSDWGQTC (also called Ex. No. 11) [Example 11 peptide CFWSDWGQTC] | no binding
3 | CTWTDLESVY (also called Ex. No. 10) [Example 10 peptide CTWTDLESVY] | no binding
4 | CHANPVWGEC (also called Ex. No. 9) [Example 9 peptide CHANPVWGEC] | no binding
5 | CQRAGYMLAC (also called Ex. No. 8) [Example 8 peptide CQRAGYMLAC] | no binding

The binders below were run against T1, granulocyte-colony stimulating factor … (assay: SPA competition with 125I-G-CSF on G-CSFR-coated beads; hybrid grade, at or near the cutoff).
Description: (§1) Streptavidin-coated scintillation proximity assay (SPA) beads (Amersham) were mixed with biotinylated anti-receptor immobilizing antibody (Ab179) followed by incubation with soluble G-CSFR harvest. Receptor-coated SPA beads were washed twice in PBS/0.1% BSA and distributed to wells of a white polystyrene 96-well microtiter plate (Packard). Serial dilutions of peptide or peptide mimetic were mixed with a constant amount of ¹²⁵I labeled G-CSF (10⁵ cpm; 1290 Ci/mmol) in PBS/0.1% BSA, added to wells containing receptor-coated SPA beads, and incubated overnight at 4° C. The binding of radiolabeled G-CSF to the receptor-coated SPA bead brings the isotope in close proximity to the scintillant, which allows the emitted radiation to stimulate the scintillant to emit light. […] The amount of ¹²⁵I labeled G-CSF that was bound at equilibrium was measured by counting the plate in a TopCount (Wallac) microtiter plate luminometer. The assay is conducted over a range of peptide concentrations and the results are graphed such that the y-axis represents the amount of bound ¹²⁵I labeled G-CSF and the x-axis represents the concentration of peptide or peptide mimetic. One can determine the concentration at which the peptide or peptide mimetic will reduce by 50% (IC₅₀) the amount of ¹²⁵I labeled G-CSF bound to immobilized G-CSFR. The dissociation constant (Kd) for the peptide should be similar to the measured IC₅₀ using the assay conditions described above.

Row | Binder | IC50 [µM]
6 | CESRLVECSRM (also called Ex. No. 47) [Example 47 peptide CESRLVECSRM] | ~200
7 | LAHCLLRLEECAAG (also called Ex. No. 48) [Example 48 peptide LAHCLLRLEECAAG] | ~200
8 | B1 | ~200
9 | ALLMCESKLAECARAR (also called Ex. No. 49) [Example 49 peptide ALLMCESKLAECARAR] | ~200

Each binder was assayed against T1, granulocyte-colony stimulating factor … (assay: SPA competition with 125I-G-CSF on G-CSFR-coated beads; grade defined in paragraph 137).
Description: as §1

Row | Binder | IC50 [µM]
10 | Biotin-KGGGMLAERKAEERRWFNTHGRE (also called Ex. No. 63) [Example 63 peptide Biotin-KGGGMLAERKAEERRWFNTHGRE] | ≤ 200
11 | H-EQSNSGWVWVGGGGC-NH2 (also called Ex. No. 45) [Example 45 peptide NH2-EQSNSGWVWVGGGGC-CONH2 (monomer)] | ≤ 200
12 | H-EQSNSGWVWV-NH2 (also called Ex. No. 35; Ex. 74) [Example 35 peptide NH2-EQSNSGWVWV-CONH2] | ≤ 200
13 | CGCHVSPVQIKALC (also called Ex. No. 71) [Example 71 peptide CGCHVSPVQIKALC] | ≤ 200
14 | H-STAERLWFCG-NH2 (also: homodimer via interchain disulfide between the Cys residues, also called Ex. No. 37; Ex. 76) [Example 37 dimer of NH2-STAERLWFCG-CONH2] | ≤ 200
15 | H-EQSNSGWVWVGGGGC-NH2 (also: homodimer linked through the C-terminal Cys residues, also called Ex. No. 46) [Example 46 dimer of NH2-EQSNSGWVWVGGGGC-CONH2] | ≤ 200
16 | B2 | ≤ 0.5
17 | H-LLDIAELKLQECARRCN-OH (not fully specified (bridges); cysteine pairing not given here, also called Ex. No. 61) [Example 61 peptide LLDIAELKLQECARRCN] | ≤ 200
18 | Biotin-LLDICELKLQECARRAN (cysteine pairing not given here, also called Ex. No. 59) [Example 59 peptide Biotin-LLDICELKLQECARRAN] | ≤ 200
19 | LLDICELKLQECARRAN (not fully specified (bridges); cysteine pairing not given here, also called Ex. No. 57) [Example 57 peptide LLDICELKLQECARRAN] | ≤ 200
20 | H-LLDICELKLQEAARRCN-OH (not fully specified (bridges); cysteine pairing not given here, also called Ex. No. 58) [Example 58 peptide LLDICELKLQEAARRCN] | ≤ 200
21 | CSTGGGLTAERDAEKRRWLLTHGGE (also: homodimer linked through the N-terminal Cys residues, also called Ex. No. 67) [Example 67 dimer of CSTGGGLTAERDAEKRRWLLTHGGE] | ≤ 200
22 | GRTGGGLLDICELKLQECARRCN (also called Ex. No. 55) [Example 55 peptide GRTGGGLLDICELKLQECARRCN] | ≤ 0.5
23 | Biotin-KLLDICELKLQEAARRCN (cysteine pairing not given here, also called Ex. No. 60) [Example 60 peptide Biotin-KLLDICELKLQEAARRCN] | ≤ 200
24 | GGGLLDICELKLQECARRCN (also called Ex. No. 54) [Example 54 peptide GGGLLDICELKLQECARRCN] | ≤ 0.5
25 | Biotin-KLLDIAELKLQECARRCN (cysteine pairing not given here, also called Ex. No. 62) [Example 62 peptide Biotin-KLLDIAELKLQECARRCN] | ≤ 200
26 | YLELCQLRLEECARQFN (also called Ex. No. 70) [Example 70 peptide YLELCQLRLEECARQFN] | ≤ 200
27 | LGIEGRTGGGLLDICELKLQECARRCN (also called Ex. No. 56) [Example 56 peptide LGIEGRTGGGLLDICELKLQECARRCN] | ≤ 0.5
28 | H-DLWYLESKLEECARRCNG-NH2 (not fully specified (bridges); cysteine pairing not given here, also called Ex. No. 51) [Example 51 peptide DLWYLESKLEECARRCNG] | ≤ 200
29 | B3 | ≤ 200
30 | H-DLWYLESKLEEAARRCNG-NH2 (also: homodimer via interchain disulfide between the Cys residues, also called Ex. No. 52) [Example 52 dimer of DLWYLESKLEEAARRCNG] | ≤ 200

From US20050277588A1 (AFFYMAX, published 2005)
